Experimental findings from patent publication WO2012019024A2 (dated 2012) are described below.

Experiment [1] deals with T1, chL1-S1 chimeric human/murine HER-3 ECD Fc fusion (human; murine, UniProt P21860 20-632).
T1 construct: also called chLl-Sl; chimeric ECD comprising human L1-S1 domains and murine L2-S2 domains; not shown: murine IgG2A hinge, CH2, and CH3 region (pmuFc2ANL vector)
T1 chain: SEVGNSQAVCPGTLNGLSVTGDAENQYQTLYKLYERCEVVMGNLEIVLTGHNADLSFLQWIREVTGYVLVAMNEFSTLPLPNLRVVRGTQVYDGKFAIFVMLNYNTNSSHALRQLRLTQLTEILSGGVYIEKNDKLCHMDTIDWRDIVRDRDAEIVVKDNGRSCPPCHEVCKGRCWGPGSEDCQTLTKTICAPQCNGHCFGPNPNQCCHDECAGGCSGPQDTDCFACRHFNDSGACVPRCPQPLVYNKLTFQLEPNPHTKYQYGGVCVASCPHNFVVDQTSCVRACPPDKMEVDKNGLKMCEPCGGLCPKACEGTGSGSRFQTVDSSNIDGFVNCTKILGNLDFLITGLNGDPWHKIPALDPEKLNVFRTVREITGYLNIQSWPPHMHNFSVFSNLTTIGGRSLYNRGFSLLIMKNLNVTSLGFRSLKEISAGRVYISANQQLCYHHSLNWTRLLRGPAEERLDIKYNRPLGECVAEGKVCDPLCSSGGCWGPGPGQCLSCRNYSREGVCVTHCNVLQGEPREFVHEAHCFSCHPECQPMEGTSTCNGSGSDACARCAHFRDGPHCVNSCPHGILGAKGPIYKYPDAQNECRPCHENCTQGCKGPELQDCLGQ
The experiment can be described thus: ELISA on chL1-S1 Fc (Figure 30). (In general: In an ELISA, binding on a coated surface is turned into a signal by an enzyme label.)

In experiment [2] the target is T2, chL2-S2 chimeric human/murine HER-3 ECD Fc fusion (murine; human, UniProt Q61526 20-632).
T2 construct: also called chL2-S2-Fc; chimeric ECD comprising murine L1-S1 domains and human L2-S2 domains; not shown: murine IgG2A hinge, CH2, and CH3 region (pmuFc2ANL vector)
T2 chain: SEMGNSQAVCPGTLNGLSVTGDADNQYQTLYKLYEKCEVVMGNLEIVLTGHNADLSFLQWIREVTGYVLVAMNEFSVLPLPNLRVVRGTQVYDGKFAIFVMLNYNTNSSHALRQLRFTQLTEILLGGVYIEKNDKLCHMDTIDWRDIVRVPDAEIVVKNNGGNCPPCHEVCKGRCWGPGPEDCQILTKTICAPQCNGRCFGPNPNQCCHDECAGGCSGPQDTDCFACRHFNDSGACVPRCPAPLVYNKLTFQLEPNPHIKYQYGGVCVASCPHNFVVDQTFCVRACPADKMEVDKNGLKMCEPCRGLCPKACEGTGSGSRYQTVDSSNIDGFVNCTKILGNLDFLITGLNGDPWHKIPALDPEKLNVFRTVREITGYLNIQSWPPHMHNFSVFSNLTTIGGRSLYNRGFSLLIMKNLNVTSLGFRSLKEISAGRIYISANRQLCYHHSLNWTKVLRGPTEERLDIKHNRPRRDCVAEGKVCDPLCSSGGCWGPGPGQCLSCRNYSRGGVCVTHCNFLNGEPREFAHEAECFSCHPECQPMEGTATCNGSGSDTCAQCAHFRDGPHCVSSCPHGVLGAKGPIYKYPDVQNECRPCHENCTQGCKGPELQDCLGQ
The experiment can be described thus: ELISA on chL2-S2 Fc.

B1: huHER3-10 antibody (antibody, V domains shown)
VH: QVQLVQSGPEVVKPGVSMKISCKASGYTFTDYTMNWVKQSPGQNLEWIGLINPYNDITAYNQKFQGKATLSVDKSSSTAYMELLSLTSEDSAVYYCARRGPRGAWFAYWGQGTLVTVSA
VL: DIVLTQSPASLAVSPGQRATISCRASTSVYNYGNSFMHWYQQMPGQPPKLLIYLASNLESGVPARFSGSGSRTDFTLTIDPVEANDAATYYCQQNSEDPWTFGQGTKLEIKR
notes: Recombinant humanized antibody with human constant regions; also called huHer-10; humanized (resurfaced) HER3-10
For the molecule B1, the binding result in experiment [1] is “binds”; in experiment [2] it was “no binding”.
